This note sets out measurements from US20170258835A1.

The target of assay [1] is CD19 (UniProt P15391). As to the kind of experiment: cell-based or functional assay.
In assay [2] the target is EGFRviii (UniProt P00533).
The target of assay [3] is HLA-A2/NY-ESO-1. Briefly: cell-based or functional assay.

Sequence of CD19 (P15391 20-556 limits assumed): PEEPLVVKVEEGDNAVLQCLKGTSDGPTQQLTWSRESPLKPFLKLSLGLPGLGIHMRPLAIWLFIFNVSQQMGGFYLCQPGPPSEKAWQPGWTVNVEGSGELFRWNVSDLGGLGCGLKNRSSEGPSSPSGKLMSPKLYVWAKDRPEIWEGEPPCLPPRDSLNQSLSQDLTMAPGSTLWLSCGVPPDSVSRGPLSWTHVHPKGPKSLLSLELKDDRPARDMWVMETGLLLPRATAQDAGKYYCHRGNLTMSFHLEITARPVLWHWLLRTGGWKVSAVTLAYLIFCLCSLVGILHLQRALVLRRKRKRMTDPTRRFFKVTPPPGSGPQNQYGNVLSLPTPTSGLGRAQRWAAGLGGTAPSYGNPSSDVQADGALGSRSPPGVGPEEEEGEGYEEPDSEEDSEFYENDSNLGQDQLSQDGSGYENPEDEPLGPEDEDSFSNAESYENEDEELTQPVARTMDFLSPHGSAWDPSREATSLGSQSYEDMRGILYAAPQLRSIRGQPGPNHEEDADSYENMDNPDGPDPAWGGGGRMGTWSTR

“Blinatumomab (secreted by T cells electroporated with Blinatumomab Bis-RNA) (bispecific antibody)”: in assay [1], the CD107a up-regulation, stimulated with K562-CD19 worked out at 81% and the IFN-gamma ELISA; lowest dose of CD19 mRNA electroporated into K562 that was recognized was 0.001 µg.

Regarding MR1-BBZ, in assay [2], the CD107a+ share of CD8+ T cells after stimulation with K562-EGFRvIII stood at 51.8%.

NY-ESO-1 (1G4) TCR alpha and beta gave a CD8/CD107a double positive cells, stimulated with Nalm6-ESO (Affi-epsilon co-electroporated, EP3 to EP6) in assay [3] of 49.5 to 53.3%.
